Data as given in EP4667483A1 (JCR Pharmaceuticals Co., Ltd., dated 2024).
Where two headings read alike, the source gives them in different places. Numbered stars: 1 amine (or outer) side, 2 acyl side, 3 side chain; on linkers, the order of the positions; unused ones are H or OH. Bridge positions count the residues as written; N and C are the ends. Square brackets hold non-standard residues; d marks the D form. Primed or numbered codes have the meaning given here. Ends that are not written are not given here. F4aao = 4-(carboxymethoxy)-L-phenylalanine, O=C([C@H](Cc1ccc(OCC(=O)[*:3])cc1)N[*:1])[*:2]; NMePhe(4-COOH) = CN[C@@H](Cc1ccc(C(=O)O)cc1)C(=O)O; Tyr(Me) = COc1ccc(C[C@H](N[*:1])C(=O)[*:2])cc1; NMePhe(3-Cl) = CN[C@@H](Cc1cccc(Cl)c1)C(=O)O; 3Pal(6-NH2) = Nc1ccc(C[C@H](N)C(=O)O)cn1; NMeW = CN[C@@H](Cc1c[nH]c2ccccc12)C(=O)O; Lys(N3) = [N-]=[N+]=NCCCC[C@H](N)C(=O)O; NMeY = CN[C@@H](Cc1ccc(O)cc1)C(=O)O; Nva(3-Et) = CCC(CC)[C@H](N)C(=O)O; NMeF = CN[C@@H](Cc1ccccc1)C(=O)O; F3COO(PEG4c) = not defined here; PEG4c(3) = PEG4 linker acid; PEG4c″ = not defined here

Key:
[1] = target: T1, human transferrin receptor (hTfR) (human, UniProt P02786 89-760); assay: SPR, KD at pH 6.0 over KD at pH 7.4
T1 construct: Recombinant hTfR; at pH 7.4 captured on the chip by an anti-His tag antibody, at pH 6.0 immobilized on an NTA chip, so it carries a His tag; also called human TfR; TfR1

[2] = target: T1, human transferrin receptor (hTfR); assay: SPR (Biacore T200), pH 6.0, hTfR on chip
[3] = target: T1, human transferrin receptor (hTfR); assay: SPR (Biacore T200), pH 7.4, hTfR on chip
[4] = target: T1, human transferrin receptor (hTfR); assay: SPR, koff at pH 6.0 over koff at pH 7.4
[5] = target: T1, human transferrin receptor (hTfR); assay: SPR, KD at pH 6.0 over KD at pH 7.4; remark: listed apart in the source
[6] = target: T1, human transferrin receptor (hTfR); assay: SPR, koff at pH 6.0 over koff at pH 7.4; remark: listed apart in the source
[7] = target: T1, human transferrin receptor (hTfR); assay: SPR (Biacore T200), pH 7.4, hTfR on chip; remark: listed apart in the source
[8] = target: T1, human transferrin receptor (hTfR); assay: SPR (Biacore T200), pH 6.0, hTfR on chip; remark: listed apart in the source
[9] = target: T1, human transferrin receptor (hTfR); assay: SPR (Biacore T200), pH 7.4, hTfR on chip; remark: listed apart in the source
[10] = target: T1, human transferrin receptor (hTfR); assay: SPR, koff at pH 6.0 over koff at pH 7.4; remark: listed apart in the source
[11] = target: T1, human transferrin receptor (hTfR); assay: SPR, KD at pH 6.0 over KD at pH 7.4; remark: listed apart in the source
[12] = target: T1, human transferrin receptor (hTfR); assay: SPR (Biacore T200), pH 6.0, hTfR on chip; remark: listed apart in the source

T1 sequence (P02786 89-760 limits assumed): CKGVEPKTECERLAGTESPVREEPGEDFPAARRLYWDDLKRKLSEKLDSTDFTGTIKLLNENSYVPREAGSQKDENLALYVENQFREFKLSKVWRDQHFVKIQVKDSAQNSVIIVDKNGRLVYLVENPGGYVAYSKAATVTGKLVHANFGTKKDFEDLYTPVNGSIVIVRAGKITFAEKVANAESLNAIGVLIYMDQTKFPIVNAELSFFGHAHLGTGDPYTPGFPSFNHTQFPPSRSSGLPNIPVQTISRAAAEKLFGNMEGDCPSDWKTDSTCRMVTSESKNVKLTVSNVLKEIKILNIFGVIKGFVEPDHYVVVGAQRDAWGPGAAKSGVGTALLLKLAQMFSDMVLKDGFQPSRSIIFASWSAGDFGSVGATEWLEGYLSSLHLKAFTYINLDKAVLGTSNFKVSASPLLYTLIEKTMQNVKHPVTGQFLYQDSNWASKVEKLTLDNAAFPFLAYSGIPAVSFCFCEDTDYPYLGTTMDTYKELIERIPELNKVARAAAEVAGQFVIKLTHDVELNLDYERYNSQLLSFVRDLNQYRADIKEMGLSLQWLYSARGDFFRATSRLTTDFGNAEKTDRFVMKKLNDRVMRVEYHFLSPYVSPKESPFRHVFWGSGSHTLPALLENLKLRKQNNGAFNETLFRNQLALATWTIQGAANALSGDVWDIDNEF

| Binder | Kd [9] [nM] | dependency koff pH6.0/7.4 [10] | dependency KD pH6.0/7.4 [11] | Kd [12] [nM] | also measured |
| --- | --- | --- | --- | --- | --- |
| AVXVXNXYIIKRYXC (as printed: A-V-MeF-V-MeW-N-3Py6NH2-Y-I-I-K-R-Y-MeF4COO-C; linker G-de-de-de-ds-ds-KN3-NH2; cyclic (ClAc-Ala1 thioether to Cys15)) [894_3498] |  |  |  |  | dependency KD pH6.0/7.4 [1]: 7.71; Kd [2]: 145 nM; Kd [3]: 18.8 nM; dependency koff pH6.0/7.4 [4]: 10.8 |
| {CH2CO}-AV[NMePhe(3-Cl)]V[NMeW]NY[F4aao]IIKRF[NMeY]C-{PEG4c(3)-NH2} (thioether N-15) [894_0644] |  |  |  |  | dependency KD pH6.0/7.4 [5]: 2.37; dependency koff pH6.0/7.4 [6]: 4.92; Kd [7]: 0.322 nM; Kd [8]: 0.764 nM |
| AVXVXNYYXIKRYXC (as printed: A-V-Me3Py-V-MeW-N-Y-Y-Eva-I-K-R-Y-MeY-C; linker PEG4c; cyclic (ClAc-Ala1 thioether to Cys15)) [894_0616] | 41.7 | 3.41 | 1.22 | 50.8 |  |
| AVXVWNYYIIXRYXC (as printed: A-V-MeF-V-W-N-Y-Y-I-I-E(PEG8Me)-R-Y-MeY-C; linker G-KN3; cyclic (ClAc-Ala1 thioether to Cys15)) [894_3435] | 11.6 | 6.89 | 3.55 | 41.2 |  |
| {CH2CO}-AV[NMeF]V[NMeW]NYY[Nva(3-Et)]IKRY[NMePhe(4-COOH)]C (thioether N-15; not fully specified (C-terminus)) [894_0593] | 3.61 | 3.72 | 2.64 | 9.52 |  |
| {CH2CO}-AV[NMeF]V[NMeW]NYY[Nva(3-Et)]SKRY[NMeY]C (thioether N-15; not fully specified (C-terminus)) [894_0611] | 30.4 | 4.83 | 2.18 | 66.3 |  |
| {CH2CO}-AV[NMePhe(3-Cl)]V[NMeW]NYY[Nva(3-Et)]SKRY[NMeY]C (thioether N-15; not fully specified (C-terminus)) [894_0612] | 5.67 | 6.71 | 2.33 | 13.2 |  |
| AVXVXNYXIIKRFXC (as printed: A-V-MeF3C-V-MeW-N-Y-F4OMe-I-I-K-R-F-MeY-C; linker PEG4c-NH2; cyclic (ClAc-Ala1 thioether to Cys15)) [894_0636] |  |  |  |  | dependency KD pH6.0/7.4 [5]: 3.58; dependency koff pH6.0/7.4 [6]: 5.55; Kd [7]: 0.226 nM; Kd [8]: 0.81 nM |
| AVXVXNYXIIQRFXC (as printed: A-V-MeF3C-V-MeW-N-Y-F4OMe-I-I-Q-R-F-MeY-C; linker PEG4c-NH2; cyclic (ClAc-Ala1 thioether to Cys15)) [894_0637] |  |  |  |  | dependency KD pH6.0/7.4 [5]: 5.66; dependency koff pH6.0/7.4 [6]: 9.23; Kd [7]: 0.859 nM; Kd [8]: 4.86 nM |
| {CH2CO}-AV[NMePhe(3-Cl)]V[NMeW]NR[Tyr(Me)]IIQRF[NMeY]C-{PEG4c(3)-NH2} (thioether N-15) [894_0642] |  |  |  |  | dependency KD pH6.0/7.4 [5]: 3.67; dependency koff pH6.0/7.4 [6]: 4.85; Kd [7]: 20.6 nM; Kd [8]: 75.5 nM |
| {CH2CO}-AV[NMePhe(3-Cl)]V[NMeW]NR[Tyr(Me)]IIKRF[NMeY]C-{PEG4c″-NH2} (thioether N-15; reading uncertain) [894_0641] |  |  |  |  | dependency KD pH6.0/7.4 [5]: 3.49; dependency koff pH6.0/7.4 [6]: 3.44; Kd [7]: 3.81 nM; Kd [8]: 13.3 nM |
| AVXVXNYYIIKRYXC (as printed: A-V-Me3Py-V-MeW-N-Y-Y-I-I-K-R-Y-MeY-C; linker PEG4c; cyclic (ClAc-Ala1 thioether to Cys15)) [894_0615] | 16.6 | 2.87 | 0.92 | 15.3 |  |
| AVXVWNXYIIKRYXC (not fully specified; as printed: A-V-MeF-V-W-N-3Py6NH2-Y-I-I-K-R-Y-MeY-C; linker PEG4c; cyclic (ClAc-Ala1 thioether to Cys15)) [894_0601] | 5.3 | 8.89 | 3.28 | 17.4 |  |
| {CH2CO}-AV[NMeF]VWN[3Pal(6-NH2)]YIIKRY[NMePhe(4-COOH)]C (thioether N-15; not fully specified (C-terminus)) [894_0603] | 7.31 | 11.3 | 4.79 | 35 |  |
| {CH2CO}-AV[NMeF]V[NMeW]N[3Pal(6-NH2)]YIIKRY[NMePhe(4-COOH)]C (thioether N-15; not fully specified (C-terminus)) [894_0604] | 3.51 | 7.83 | 4.76 | 16.7 |  |
| {CH2CO}-AV[NMePhe(3-Cl)]V[NMeW]NY[F4aao]IIKRF[NMePhe(4-COOH)](PEG4c(3))C-{PEG4c(3)-NH2} (thioether N-15) [894_0647] |  |  |  |  | dependency KD pH6.0/7.4 [5]: 5.35; dependency koff pH6.0/7.4 [6]: 9.27; Kd [7]: 0.142 nM; Kd [8]: 0.76 nM |
| AVXVWNYYIIRRXXC (as printed: A-V-MeF-V-W-N-Y-Y-I-I-R-R-F3COO(PEG8Me)-MeY-C; linker G-KN3; cyclic (ClAc-Ala1 thioether to Cys15)) [894_3436] | 2 | 5.75 | 3.36 | 6.72 |  |
| {CH2CO}-AV[NMeF]VWNRYIIRR[F3COO(PEG4c)][NMePhe(4-COOH)]CG[Lys(N3)]-NH2 (thioether N-15; reading uncertain) [894_3491] |  |  |  |  | dependency KD pH6.0/7.4 [1]: 3.73; Kd [2]: 799 nM; Kd [3]: 214 nM; dependency koff pH6.0/7.4 [4]: 2.44 |
| AVXVXNYYIIKRXXC (as printed: A-V-MeF-V-MeW-N-Y-Y-I-I-K-R-F3COO(PEG4c)-MeF4COO-C; linker G-KN3-NH2; cyclic (ClAc-Ala1 thioether to Cys15)) [894_3488] |  |  |  |  | dependency KD pH6.0/7.4 [1]: 3.22; Kd [2]: 5.15 nM; Kd [3]: 1.6 nM; dependency koff pH6.0/7.4 [4]: 5.15 |
| AVXVXNXYIIKRYXC (not fully specified; as printed: A-V-MeF-V-MeW-N-3Py6NH2-Y-I-I-K-R-Y-MeY-C; linker PEG4c; cyclic (ClAc-Ala1 thioether to Cys15)) [894_0602] | 6.37 | 6.5 | 2.97 | 18.9 |  |
| {CH2CO}-AV[NMePhe(3-Cl)]V[NMeW]N[3Pal(6-NH2)]YI[code s]KRY[NMeY]C (thioether N-15; also: linker PEG4c attached, place not given here, Position 10 is printed as lower-case 's') [894_0620] | 4.97 | 12.5 | 3.26 | 16.2 |  |
| {CH2CO}-AV[NMeF]V[NMeW]N[3Pal(6-NH2)]YI[code s]KRY[NMeY]C (thioether N-15; also: linker PEG4c attached, place not given here, Position 10 is printed as lower-case 's') [894_0619] | 27.6 | 12.2 | 4.57 | 126 |  |
| AVXVXNYYIIKRXXC (not fully specified; as printed: A-V-MeF3C-V-W1Me-N-Y-Y-I-I-K-R-4Py-MeY-C; linker PEG4c; cyclic (ClAc-Ala1 thioether to Cys15)) [894_0607] | 0.546 | 7.49 | 3.74 | 2.04 |  |
